Measurements as given in patent US20080305187A1, “Use of Parathyroid Hormone for Treating Periodontal Disease and for Other Dental Applications” (priority 2005, published 2008).
Values belong to the molecule of their own block, whether it stands above or below them.

How the values were obtained:
[1] = system: patient with adult periodontitis; experiment: Treatment of patient with periodontal disease prior to dental implant therapy; type: in vivo, human; details: person, 20 μg once-daily subcutaneous for 3 months prior to implant surgery
From the text: A person presents with a history of adult periodontitis. The patient has experienced significant alveolar bone loss confirmed radiographically, and has a number of tooth sites with pocket probing depth measurements of about 7 mm. The patient has discussed with their dentist possible extraction of severely-affected teeth and their replacement with dental implants, but the prospects for success are diminished in view of the bone loss that has occurred. Standard periodontal care is provided, including scaling and root planning, and those teeth with poor prognosis are extracted. Prior to implant surgery, the patient is administered 20 μg of hPTH(1-34) once-daily by subcutaneous injection for 3 months prior to implant surgery.

[2] = system: systemic bone loss associated with osteoporosis; details: R. M. Neer et al., NEJM 2001; cited from earlier work

- complications post placement of the implants [1]: No complications
Molecule: CC[C@H](C)[C@H](NC(=O)[C@H](CCC(=O)O)NC(=O)[C@H](CO)NC(=O)[C@@H](NC(=O)[C@@H](N)CO)C(C)C)C(=O)N[C@@H](CCC(N)=O)C(=O)N[C@@H](CC(C)C)C(=O)N[C@@H](CCSC)C(=O)N[C@@H](Cc1cnc[nH]1)C(=O)N[C@@H](CC(N)=O)C(=O)N[C@@H](CC(C)C)C(=O)NCC(=O)N[C@@H](CCCCN)C(=O)N[C@@H](Cc1cnc[nH]1)C(=O)N[C@@H](CC(C)C)C(=O)N[C@@H](CC(N)=O)C(=O)N[C@@H](CO)C(=O)N[C@@H](CCSC)C(=O)N[C@@H](CCC(=O)O)C(=O)N[C@@H](CCCN=C(N)N)C(=O)N[C@H](C(=O)N[C@@H](CCC(=O)O)C(=O)N[C@@H](Cc1c[nH]c2ccccc12)C(=O)N[C@@H](CC(C)C)C(=O)N[C@@H](CCCN=C(N)N)C(=O)N[C@@H](CCCCN)C(=O)N[C@@H](CCCCN)C(=O)N[C@@H](CC(C)C)C(=O)N[C@@H](CCC(N)=O)C(=O)N[C@@H](CC(=O)O)C(=O)N[C@H](C(=O)N[C@@H](Cc1cnc[nH]1)C(=O)N[C@@H](CC(N)=O)C(=O)N[C@@H](Cc1ccccc1)C(=O)O)C(C)C)C(C)C [hPTH(1-34), human PTH(1-34)]

B1: parathyroid hormone (peptide, UniProt P01270 32-115, looked up)
Parathyroid hormone: SVSEIQLMHNLGKHLNSMERVEWLRKKLQDVHNFVALGAPLAPRDAGSQRPRKKEDNVLVESHEKSLGEADKADVNVLTKAKSQ
modifications: Parathyroid hormone
- BMD [2]: increases BMD
- risk of vertebral and non-vertebral bone fracture [2]: reduces the risk of vertebral and non-vertebral bone fracture
